Test [1] deals with human IL-2Rγ expressed on cells (human) (UniProt P31785). The test can be described thus: flow cytometry, isotype control at 10 µg/ml; high end of the range (NK-92 by Table 9-1). For orientation: Flow cytometry measures light scatter and fluorescence of single cells or particles in a stream.
The target is the same in test [2]. The test can be described thus: flow cytometry on NK-92 cells, isotype control at 10 µg/ml; the end of the range that Table 9-2 ties to NK-92.
The target in test [3] is T1, human IL-2Rγ expressed on cells (NK-92, Jurkat) (human) (UniProt P31785).
T1 sequence (looked up): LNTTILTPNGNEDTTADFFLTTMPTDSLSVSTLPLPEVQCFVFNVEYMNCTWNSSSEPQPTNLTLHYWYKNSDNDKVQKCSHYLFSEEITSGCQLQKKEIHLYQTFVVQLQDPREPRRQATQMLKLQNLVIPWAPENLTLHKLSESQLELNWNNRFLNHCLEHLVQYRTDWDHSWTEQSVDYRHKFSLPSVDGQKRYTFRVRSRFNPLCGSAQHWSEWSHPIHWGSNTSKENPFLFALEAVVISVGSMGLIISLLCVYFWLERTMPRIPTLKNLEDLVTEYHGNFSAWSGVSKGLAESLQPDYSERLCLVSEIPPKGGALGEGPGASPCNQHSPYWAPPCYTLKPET
The test can be described thus: flow cytometry on Jurkat cells (endogenous human IL-2Rg), isotype control 10 ug/ml.

Test [4] concerns the target T1, human IL-2Rγ expressed on cells (NK-92, Jurkat) (human). The test can be described thus: flow cytometry on NK-92 cells (endogenous human IL-2Rg), isotype control 10 ug/ml.
The target in test [5] is T2, mouse IL-2Rγ expressed on cells (MC/9) (mouse) (UniProt P34902).
T2 sequence (looked up): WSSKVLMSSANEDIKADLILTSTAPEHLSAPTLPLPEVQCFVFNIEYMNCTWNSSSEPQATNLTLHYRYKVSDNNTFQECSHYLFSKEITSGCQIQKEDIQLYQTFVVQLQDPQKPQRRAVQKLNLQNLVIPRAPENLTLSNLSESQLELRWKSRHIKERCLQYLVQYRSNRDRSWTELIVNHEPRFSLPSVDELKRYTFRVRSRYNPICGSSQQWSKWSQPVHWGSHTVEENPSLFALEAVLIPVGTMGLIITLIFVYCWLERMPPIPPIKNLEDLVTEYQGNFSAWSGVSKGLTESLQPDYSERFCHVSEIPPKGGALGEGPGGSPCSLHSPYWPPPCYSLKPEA
Kind of test: flow cytometry on MC/9 cells (endogenous mouse IL-2Rg), isotype control 10 ug/ml.

The target in test [6] is human IL-2Rγ expressed on cells (human) (UniProt P31785). The test can be described thus: flow cytometry, isotype control at 10 µg/ml; low end of the range (Jurkat by Table 9-1).
Test [7] has as its target T1, human IL-2Rγ expressed on cells (NK-92, Jurkat) (human). The test can be described thus: flow cytometry on NK-92 cells (endogenous human IL-2Rg), isotype control 10 ug/ml. This is another data set of the same source.
Test [8] addresses T3, human IL2Rγ expressed on cells (human) (UniProt P31785).
T3 sequence (looked up): T1 sequence (looked up)
Kind of test: cell-based or functional assay.

Test [9] has as its target T3, human IL2Rγ expressed on cells (human). The test can be described thus: cell-based or functional assay. This is another data set of the same source.
The target in test [10] is T1, human IL-2Rγ expressed on cells (NK-92, Jurkat) (human). The test can be described thus: flow cytometry on NK-92 cells (endogenous human IL-2Rg), secondary antibody alone.
For test [11], the target named is T2, mouse IL-2Rγ expressed on cells (MC/9) (mouse). Kind of test: flow cytometry on MC/9 cells (endogenous mouse IL-2Rg), secondary antibody alone.
Test [12] addresses T1, human IL-2Rγ expressed on cells (NK-92, Jurkat) (human). Kind of test: flow cytometry on Jurkat cells (endogenous human IL-2Rg), secondary antibody alone.

Where two headings read alike, the source gives them in different places.

Six substances from patent US20230279131A1 can be followed below.

Turning to REGN1945 (antibody), the results for the binding ratio (sample MFI over unstained MFI) in test [1], in test [2] and in test [6] were 13, 1 and 1, respectively. Besides, the Binding Ratio (Sample over unstained MFIs) is 1 in test [3], 13 in [4], 1 in test [5] and 1 in test [7].

Take “human IL-9 (from UniProt P15248 19-144) (ligand)”: the results for the EC50 [M] of ligand; NK92/hIL7R/STAT3-luc in test [8] and in [9] were 2e-11 M and 3.3e-11 M, respectively.

In the case of “human IL-15 (from UniProt P40933 49-162) (ligand)”, the EC50 [M] of ligand; NK92/hIL7R/STAT3-luc is 1.5e-10 M in test [8] and 2.3e-10 M in [9].

As for “human IL-21 (from UniProt Q9HBE4 30-162) (ligand)”, the EC50 [M] of ligand; NK92/hIL7R/STAT3-luc was 3.1e-12 M in [8] and 6e-12 M in test [9].

As to “human IL-2 (from UniProt P60568 21-153) (ligand)”, the values for the EC50 [M] of ligand; NK92/hIL7R/STAT3-luc in test [8] and in test [9] were 3.3e-11 M and 4.5e-11 M, respectively.

Turning to “anti-human antibody conjugated to allophycocyanin (APC) (Jackson ImmunoResearch, #109-136-170)”, the Binding Ratio (Sample over unstained MFIs) in test [10], in [11] and in test [12] was 1 each time.
